The target of this assay is DivL DHp and CA domains fused to YFP (Caulobacter crescentus). The assay is described as follows: FRET or BRET. (In general: In BRET a luciferase serves as donor, and the signal depends on an acceptor being close.)
Chain of DivL DHp and CA domains fused to YFP (Caulobacter crescentus) (Q9RQQ9 547-758): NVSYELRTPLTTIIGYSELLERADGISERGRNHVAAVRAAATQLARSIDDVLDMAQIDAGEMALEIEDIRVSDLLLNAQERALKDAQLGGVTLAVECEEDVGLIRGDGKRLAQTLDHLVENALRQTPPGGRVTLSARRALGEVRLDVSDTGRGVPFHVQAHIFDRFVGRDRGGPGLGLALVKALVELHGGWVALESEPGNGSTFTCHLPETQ

The substance “DivK~P-CFP (DivK-CFP phosphorylated by DivJ and ATP) (natural protein)” displayed an FRET efficiency relative to the longer version of DivL of 85%.

For the origin of these results see publication PMC3068846.
